Experimental data published in US12495796B2, “Compositions, methods, and applications of a synthetic surfactant” (1283581 B.C. LTD, priority 2019, dated 2025).

How the values were obtained:
[1] = Retention of pesticide (Bifenazate) in leaves with RSN 1-6 mixture as adjuvant, GC/MS quantification; assay type: in vivo, Arabidopsis thaliana (columbia ecotype); conditions: Floramite + RSN 1-6 mixture vs pesticide alone
Procedure: 12 four-week-old Arabidopsis thaliana (columbia ecotype) plants were used for the experiment. (6 control, 6 experimental) (FIG. 13).
Growth condition: plants were grown in soil at in 16-hour days/8-hour nights light cycle with temperatures of 22° C. Lighting was provided with fluorescent bulbs giving an average light intensity of 175 micromoles/meter^2 second. Seeds were cold treated (stratification) for 3 days at 4° C. after imbibition to synchronize germination
The experimental plants were applied with a mixture of Floramite® and RSN 1-6 mixture (50 μL of 10 mg/mL) directly to the leaves using a pipette. The control plants were applied with just the pesticide. Samples were collected at the end of 5 days and 10 days.
4 control leaves and 4 experimental leaves were collected at the end of 5 days and 10 days of application. The leaves were homogenized using liquid nitrogen and extracted using Methanol:Chloroform mix (2:1) (FIG. 14). […]
A GC/MS instrument (Thermo Focus GC, Polaris ion trap MS) with a DB-5 column was used for quantification of the pesticide. […]
Concentration of Bifenazate in control leaf sample −0.018 μg/μL (FIG. 15). […] Concentrations were calculated using the peak area of the internal standard compared to the peak area of the pesticide. The experimental leaf was calculated to have a 3.6 times the amount of Bifenazate when compared to the control leaf.

[2] = system: E. coli; assay: Kirby Bauer antimicrobial assay (disk-diffusion) on E. coli culture plates; assay type: cell-based, Escherichia coli; conditions: 24 hours; for antimicrobial properties / radius of resistance to the E. coli colonies: 20 μL of 10 mg/mL on filter paper disc, 37° C.; for effect on E. coli colonies (kills or slows growth): conclusion from disk-diffusion; for resistance to E. coli (in words): growth of colonies near the filter paper disc
Procedure: Antimicrobial agents stop the growth or kill microorganisms such as Escherichia coli (E. coli). The Kirby Bauer antimicrobial assay or disk-diffusion method is used to test what antibiotic will fight against which bacteria strain.^17 The Kirby Bauer antimicrobial assay, is most commonly used to monitor the growth of bacteria growth around a disk, measuring the radius/diameter of the growth from the disk if a gap is present; this can be done in a time period as short as 24 hours or as long as 5 days.^18
RSN mixture was prepared using equal parts of each protein (RSN 1-6) in a concentration of 10 mg/mL and vortexed until combined.^22 E. coli culture plates were prepared and allowed to dry, small filter paper circles were placed on the plate, with a 20 μL of the RSN sample labeled RSN 1-6.
Once the protein was placed on the E. coli culture plates, the plates were placed into a new Brunswick Scientific Excella E24 Incubator Shaker set at 37° C., for 24 hours. After 24 hours the plates were taken out of the incubator shaker and observed.

[3] = Denaturing of ranaspumin proteins with increasing temperature, monitored by circular dichromium (CD); assay type: physicochemical; conditions: CD 200-300 nm, 0.25 mg/mL, 20-90° C. in 5° C. steps
Procedure: The secondary structure of ranaspumin proteins can be confirmed with CD to identify if there is a presence of an α-helix, β-sheets or random coils. The CD can also be used to monitor the denaturing of a protein structure by observing the intensity of the bands on the spectra. This experiment uses increasing temperature to determine when ranaspumin proteins start to denature in the secondary structure with the use of a CD spectrum. A 3 mL solution with a concentration of 0.25 mg/mL of RSN 1-6 was diluted from a range of 2.69 mg/mL-0.50 mg/mL stock solution. The Jasco 815 […], with Jasco temperature controller and a water bath attachment was used to analyze the RSN 2 protein structure. The initial temperature was set to 20° C., the wavelength was set to 200-300 nm and the temperature was increased by 5° C. after each measurement and allowing for 60 seconds of stability before recording the next measurement, in a temperature range of 20-90° C. A bank was run for a baseline before a 1.5 mL solution was run through the CD and the spectra were monitored for a change in intensity in the bands.

Molecule: COc1ccc(-c2ccccc2)cc1NNC(=O)OC(C)C [Bifenazate]
- amount of Bifenazate in experimental leaf compared to control leaf ([1]; after 5 days): 3.6 times
- amount of Bifenazate in experimental leaf compared to control leaf ([1]; after 10 days): 1.2 times

B1: RSN 2: recombinant mature ranaspumin protein without signal peptide, Synthetic Amino Acid Sequence No. 2; main surfactant (protein, listed as Engystomops pustulosus)
chain: LILDGDLLKDKLKLPVIDNLFGKELLDKFQDDVKDKYGVDTKDLKILKTSEDKRFYYVSVDAGDGEKCKFKIRKDVDVPKMVGRKCRKDDDDDDGY
- antimicrobial properties [2]: presented antimicrobial properties
- radius of resistance to the E. coli colonies [2]: 1.1 cm
- effect on E. coli colonies (kills or slows growth) [2]: kills the E. coli colonies
- resistance to E. coli (in words) [2]: high resistance
- temperature at which the protein starts to denature [3]: 70 °C

B2: RSN 6: recombinant mature ranaspumin protein without signal peptide, Synthetic Amino Acid Sequence No. 6 (protein, listed as Engystomops pustulosus)
chain: ETLCIPGRMKQLDAGAGRVVAVKSNGDVYQLLENNWVQIPGKLIHVTVGPAGLWGVNKDKNIYKYVDNDWLQVDGLLNQIDAGGNRFVVGVNDNEDIFCLNQDQTTSNAVKLDYKGVDGKLKYYSSGGYGSWGVNAAYDIFYRRNVHPMSCQGTNWENVEGKLVMLEVAEDGSVYGVNYNGHVYKREGITAGNPMGTSWTYLKVDEKVRHVSYDRGVLYVVTIDDRIFRC
- antimicrobial properties [2]: did not show any antimicrobial properties
- secondary structure staying intact up to [3]: 30-39 °C
- slowly denatures until [3]: 90 °C
- temperature at which the protein starts to denature [3]: 40 °C

B3: RSN 1: recombinant mature ranaspumin protein without signal peptide, Synthetic Amino Acid Sequence No. 1 (protein, listed as Engystomops pustulosus)
chain: GGGNIGGGAKLGPEKPATPGIQDLLKSLLSVLNLSPPAIPEDAEAVSYRDAKNGKFRLIKIHLGGELYCHVKQIAGPILALPIVSDVVEVTGKECGKTEDDPLEDFPIP
- antimicrobial properties [2]: did not show any antimicrobial properties
- temperature at which the protein denatures further [3]: 70 °C
- temperature at which the protein starts to denature [3]: 50 °C

B4: RSN 3: recombinant mature ranaspumin protein without signal peptide, Synthetic Amino Acid Sequence No. 3 (protein, listed as Engystomops pustulosus)
chain: IDPTGLVQILLLEQVVHKIPPGNINLARTGIATQDSDYTASAVPSEARLAIDGNRNSDFNQKSCSHTGGNEPAWWRLELKKKSKISVVVIAIRSDCCMDRFKGAELRIGNSQDATVNPICGKVSAVKGSNYLFCCDGMEGKYISVVIPDRHEFLSLCEVEVYGAKPIEGTHCK
- antimicrobial properties [2]: did not show any antimicrobial properties
- temperature at which the protein fully denatures [3]: 70 °C
- temperature at which the protein starts to denature [3]: 70 °C

B5: RSN 5: recombinant mature ranaspumin protein without signal peptide, Synthetic Amino Acid Sequence No. 5 (protein, listed as Engystomops pustulosus)
chain: GAPGGAAGPLLVLNILGSVVHETKPPEGVNLALKGIASSDSIASNGSVTGLAAKAIDGIRVSDFFKGHCSLTNGLNNPTWWKVDLKKSYKISSVFVTNRDDCCTERLLHAEIRIGSNPDHNHNPICAEVKTVASSNIGFCCGGMEGRYVSVSVPRKEQLSLCEVEVYGDLKKVLHCA
- antimicrobial properties [2]: presented antimicrobial properties
- radius of resistance to the E. coli colonies [2]: 0.7 cm
- effect on E. coli colonies (kills or slows growth) [2]: slows the rate of the growth of the E. coli colonies
- resistance to E. coli (in words) [2]: moderate resistance
- temperature at which the protein fully denatures [3]: 70 °C

B6: RSN 4: recombinant mature ranaspumin protein without signal peptide, Synthetic Amino Acid Sequence No. 4 (protein, listed as Engystomops pustulosus)
chain: DRNLALDGRATMSSIWMDPDIRQSFLGVAMNGIDGNTDSVYFHGSCFHTGLDSPAWYRVDLLRTSKISSITITNRGDFGSRTNGAEIRIGDSLANNGNNNPRCALVTSIADGETRTFQCNNMVGRYVNIVLTGKTEFLHLCEVQIFGENLPRSFSCQYSNDGMITLLVSTRFMK
- antimicrobial properties [2]: did not show any antimicrobial properties
- temperature at which the protein denatures further [3]: 90 °C
- temperature at which the protein starts to denature [3]: 50 °C
